Where two headings read alike, the source gives them in different places.

Results on 15 molecules are retold here after patent US20080032921A1.

Assay [1] deals with purified HLA DRB1*1302 (human). The assay is described as follows: competition with 125I-labelled reference peptide, purified HLA.
For assay [2], the target named is purified HLA DRB1*0101 (human). Described as above.
For assay [3], the target named is purified HLA DRB1*0405 (human). The description is as above.
The target in assay [4] is purified HLA DRB1*0301 (human). The description is as above.
The target in assay [5] is purified HLA DRB1*0404 (human). The description is as above.
Assay [6] concerns the target purified HLA DRB1*0401 (human). Described as above.
Assay [7] deals with HLA-DR DRB1*0404 (human). Description: competition assay, purified HLA, inhibition of 125I-labelled reference peptide.
Assay [8] deals with HLA-DR DRB1*0401 (human). The assay is described as above.
Assay [9] addresses HLA-DR DRB1*0301 (human). Described as above.
Assay [10] deals with HLA-DR DRB1*0405 (human). The assay is described as above.
Assay [11] addresses HLA-DR DRB1*1302 (human). The description is as above.
For assay [12], the target named is HLA-DR DRB1*0101 (human). Described as above.
For assay [13], the target named is purified HLA DRB1*1302 (human). Description: competition with 125I-labelled peptide for purified HLA.
In assay [14] the target is purified HLA DRB1*0101 (human). Described as above.
The target of assay [15] is purified HLA DRB4*0101 (human). The assay is described as above.
The target of assay [16] is purified HLA DRB1*1501 (human). The description is as above.
For assay [17], the target named is purified HLA DRB1*0401 (human). Described as above.
In assay [18] the target is HLA-DR DRB1*1501 (human). Description: competition with 125I-labelled peptide, purified HLA.
For assay [19], the target named is HLA-DR DRB1*0404 (human). The assay is described as above.
In assay [20] the target is HLA-DR DRB1*0401 (human). Described as above.
Assay [21] deals with HLA-DR DRB1*1101 (human). The description is as above.
The target in assay [22] is HLA-DR DRB1*0301 (human). The assay is described as above.
Assay [23] has as its target HLA-DR DRB1*0405 (human). The assay is described as above.
The target of assay [24] is HLA-DR DRB1*0701 (human). The assay is described as above.
Assay [25] has as its target HLA-DR DRB1*0101 (human). Described as above.
Assay [26] deals with HLA-DR DRB1*1501 (human). Description: competition with 125I-labelled reference peptide on purified HLA-DR.
Assay [27] has as its target HLA-DR DRB1*0401 (human). The description is as above.
The target of assay [28] is HLA-DR DRB1*1302 (human). The assay is described as above.
Assay [29] deals with HLA-DR DRB4*0101 (human). The assay is described as above.
The target in assay [30] is HLA-DR DRB1*0101 (human). Described as above.
Assay [31] deals with HLA-DR DRB4*0101 (human).
In assay [32] the target is HLA-DR DRB1*0101 (human).
For assay [33], the target named is HLA-DR DRB1*0301 (human). Description: competition with 125I-labelled reference peptide on purified HLA-DR.
The target of assay [34] is purified HLA-DR DRB1*1302 (human). The assay is described as follows: competition with 125I-labelled reference peptide, purified HLA.
For assay [35], the target named is purified HLA-DR DRB1*0404 (human). The description is as above.
For assay [36], the target named is purified HLA-DR DRB4*0101 (human). The assay is described as above.
In assay [37] the target is purified HLA-DR DRB1*0405 (human). Described as above.
The target in assay [38] is purified HLA-DR DRB1*0101 (human). Described as above.
For assay [39], the target named is purified HLA-DR DRB1*0401 (human). Described as above.
For assay [40], the target named is purified HLA-DR DRB1*0301 (human). The description is as above.
Assay [41] has as its target purified HLA-DR DRB1*1501 (human). The assay is described as above.
The target of assay [42] is purified HLA-DR DRB1*1101 (human). The description is as above.
Assay [43] concerns the target purified HLA-DR DRB5*0101 (human). The description is as above.
Assay [44] addresses HLA-DR DRB1*1501 (human). The assay is described as follows: competition vs 125I-labeled peptide, purified HLA.
The target in assay [45] is HLA-DR DRB1*0401 (human). The assay is described as follows: competition vs 125I-labeled peptide, purified HLA.
The target in assay [46] is HLA-DR DRB1*0301 (human). The assay is described as follows: competition vs 125I-labeled peptide, purified HLA.
Assay [47] concerns the target HLA-DR DRB1*1302 (human). The assay is described as follows: competition vs 125I-labeled peptide, purified HLA.
Assay [48] has as its target HLA-DR DRB4*0101 (human). The assay is described as follows: competition vs 125I-labeled peptide, purified HLA.
The target in assay [49] is HLA-DR DRB1*0101 (human). Description: competition vs 125I-labeled peptide, purified HLA.

B1: Flu.PB1.590 (peptide)
peptide: AGLLVSDGGPNLYNI
modifications: not checked
The term IC50 denotes the point on the concentration scale where inhibition reaches its midpoint. Read a low IC50 as inhibition by little substance. As to B1, the IC50 in [1] was 105 nM; in assay [2], 8.12 µM; in [3], more than 10 µM; in assay [4], 107 nM; in assay [5] it was 3490 nM; in assay [6] it was 3000 nM.

B2: Flu.NP.111 (peptide)
peptide: LILYDKEEIRRIWRQ
modifications: not checked
As for B2, the IC50 was found to be 262 nM in assay [7]; 12400 nM in [8]; 22 nM in assay [9]; 7.5 µM in assay [10]; 3.1 µM in assay [11]; 7.18 µM in [12].

B3: Flu.HA.529 peptide … (peptide)
peptide: IYQILSIYSTVASSLA
modifications: not checked
With B3, the IC50 in assay [13] is 13 nM; in assay [14] it was 55 nM; in assay [15], 18 nM; in [16], 4.7 nM; in assay [17] it was 89 nM.

B4: Flu.NP.238 (peptide)
peptide: QKAMMDQVRESRNPG
modifications: not checked
As to B4, the IC50 in assay [7] was found to be 1830 nM; in assay [8] it was 856 nM; in assay [9], 450 nM; in assay [10] it was 13.1 µM; in [11], 10.5 µM; in [12], 17.6 µM.

B5: Flu.NP.488 (peptide)
peptide: GSYFFGDNAEEYDN
modifications: not checked
Regarding B5, the half-inhibitory concentration (IC50) in assay [7] is more than 10000 nM; in [8] it was 1950 nM; in [9], 139 nM; in [10] it was 0.065 µM; in assay [11] it was more than 10 µM; in [12], more than 10 µM.

B6: Flu.NP.43 (peptide)
peptide: YIQMCTELKLSDYEG
modifications: not checked
B6: the IC50 in assay [18] worked out at 594 nM; in assay [19], 1640 nM; in assay [20] it was 392 nM; in assay [21] it was 5.84 µM; in assay [22] it was 368 nM; in assay [23] it was 2690 nM. The values for the half-maximal inhibitory concentration (IC50) in assay [24] and in assay [25] were 5.37 µM and 320 nM, respectively.

B7: Flu.NA.21 peptide … (peptide)
peptide: SLMLQIGNMISIWVSHS
modifications: not checked
For the molecule B7, the IC50 in assay [26] worked out at 34 nM; in assay [27] it was 480 nM; in [28], 44 nM; in assay [29], 0.746 µM; in assay [30] it was 36 nM; in assay [13] it was 44 nM. The half-maximal inhibitory concentration (IC50) in assay [14] came to 36 nM; in assay [15], 746 nM; in assay [16] it was 34 nM; in assay [17], 480 nM.

B8: Flu.NA.115 peptide … (peptide)
peptide: TQGALLNDKHSNGTVKD
modifications: not checked
For the molecule B8, the IC50 in assay [31] was more than 10 µM; in [32], more than 10 µM; in [26], 822 nM; in [27] it was 19000 nM; in assay [33] it was 177 nM; in assay [28], 468 nM.

B9: Flu.PB2.384 (peptide)
peptide: LIQLIVSGRDEQSIA
modifications: not checked
Turning to B9, the concentration for half-maximal inhibition (IC50) was found to be 4.68 µM in assay [34]; 90 nM in assay [35]; 9.9 nM in assay [36]; 460 nM in [37]; 3.23 µM in assay [38]; 83 nM in assay [39]. In addition, the half-inhibitory concentration (IC50) is 53 nM in assay [40], 420 nM in assay [41], 2010 nM in assay [42] and 1720 nM in assay [43].

B10: Flu.HA.11 (peptide)
peptide: VSLVKSDQICIGYHA
modifications: not checked
In the case of B10, the IC50 in assay [32] is more than 10 µM; in assay [44], 14.5 µM; in assay [45], 513 nM; in assay [46], 511 nM; in assay [47], 175 nM; in assay [48] it was 32 nM.

B11: Flu.NA.77 peptide … (peptide)
peptide: WAVYSKDNSIRIGSK
modifications: not checked
In the case of B11, the IC50 in [26] was 642 nM; in assay [27], 1600 nM; in assay [33], 291 nM; in [28], 36 nM; in [29] it was 19.5 µM; in assay [30], 5400 nM.

B12: Flu.HA.156 (peptide)
peptide: KSSFFRNVVWLIKKN
modifications: not checked
Turning to B12, the IC50 in [31] was more than 10 µM; in assay [44], 0.832 µM; in assay [45] it was 474 nM; in assay [47], 20 nM; in assay [49] it was 46 nM.

B13: Flu.NS1.68 (peptide)
peptide: VERILKEESDEALKM
modifications: not checked
Consider B13, for which the half-inhibitory concentration (IC50) in [7] was 572 nM; in assay [8] it was 679 nM; in assay [10] it was more than 10 µM; in [11] it was 5.07 µM; in assay [12], 5.19 µM.

B14: Flu.HA.532 peptide … (peptide)
peptide: ILSIYSTVASSLALAI
modifications: not checked
As to B14, the IC50 in assay [13] was 7.6 nM; in assay [14] it was 11 nM; in [15], 824 nM; in [16], 20 nM; in assay [17], 91 nM.

B15: Flu.PB1.535 (peptide)
peptide: NNMINNDLGPATAQM
modifications: not checked
For the molecule B15, the IC50 in assay [1] was 477 nM; in assay [2], 3.08 µM; in [3], more than 10 µM; in assay [4] it was 527 nM; in assay [5], 1830 nM; in assay [6], 798 nM.
